Measured values as given in publication PMC9240080.

Experiments:
SpySwitch [1] = assay: ITC; pH 7.5
SpySwitch [2] = assay: ITC

Substance	Kd (SpySwitch [1]) [nM]	stoichiometry N (SpySwitch [2])
SpyTag003-MBP	1500	1
SpyTag-MBP	1100	1
